Reference: patent US20140135482A1 (Hoffmann-La Roche, published 2014)

B1: <c-Met> Mab 5D5 (antibody, human IgG1, kappa, V domains shown)
VH: EVQLVESGGGLVQPGGSLRLSCAASGYTFTSYWLHWVRQAPGKGLEWVGMIDPSNSDTRFNPNFKDRFTISADTSKNTAYLQMNSLRAEDTAVYYCATYRSYVTPLDYWGQGTLVTVSS
VL: DIQMTQSPSSLSASVGDRVTITCKSSQSLLYTSSQKNYLAWYQQKPGKAPKLLIYWASTRESGVPSRFSGSGSGTDFTLTISSLQPEDFATYYCQQYYAYPWTFGQGTKVEIKR
notes: Monospecific, bivalent c-Met parent antibody (humanized); also called c-Met 5D5; bivalent 5D5
B2: <ErbB3> HER3 clone 29 (antibody, human IgG1, kappa, V domains shown)
VH: DVQLQESGPGLVKPSQSLSLTCSVTGYSITSAYYWNWIRQFPGNKLEWMGYISYGGSNSYAPSLKNRFSITRDTSKNQFFLKLNSVTTEDTATYYCARESDYAYFDYWGQGTTLTVSS
VL: DIQMTQTTSSLSASLGDRVTISCRARQDISNYLNWYQRKPDGTVKLLIYYTSRLHSGVPSRFSGSGSGTDYSLTISNLEQEDIATYFCQQGNTFPWTFGGGTKLEIKR
notes: Monospecific bivalent parent antibody (chimeric)
B3: <ErbB3> Mab 205 (chimeric) (antibody, V domains shown)
VH: QGQMQQSGAELVKPGASVKLSCKTSGFTFRSSYISWLKQKPRQSLEWIAWIYAGTGSPSYNQKFTGKAQLTVDTSSSTAYMQLSSLTSEDSAIYYCARHRDYYSNSLTYWGQGTLVTVSA
VL: DIVMTQSPSSLTVTAGENVTMSCKSSQSLLNSGNQKNYLTWYQQKPGQPPKLLIYWASTRESGVPNRFTGSGSGTDFTLAISSVQAEDLSIYYCQSDYSYPYTFGQGTKLEIK
B4: <ErbB3-c-Met> Her3/Met_6C (bispecific antibody, human IgG1, kappa)
heavy 1: not shown
heavy 2: not shown
light: DIQMTQTTSSLSASLGDRVTISCRARQDISNYLNWYQRKPDGTVKLLIYYTSRLHSGVPSRFSGSGSGTDYSLTISNLEQEDIATYFCQQGNTFPWTFGGGTKLEIKRTVAAPSVFIFPPSDEQLKSGTASVVCLLNNFYPREAKVQWKVDNALQSGNSQESVTEQDSKDSTYSLSSTLTLSKADYEKHKVYACEVTHQGLSSPVTKSFNRGEC
B5: <ErbB3-c-Met> Her3/Met_SSKH (bispecific antibody, human IgG1, kappa)
heavy 1: not shown
heavy 2: not shown
light: B4 light
B6: <ErbB3-c-Met> Her3/Met_KHSS (bispecific antibody, human IgG1, kappa)
heavy 1: not shown
heavy 2: not shown
light: B4 light
notes: also called Her3/c-Met KHSS
B7: <ErbB3-c-Met> Her3/Me_scFvSSKH (bispecific antibody, human IgG1, kappa)
heavy 1: not shown
heavy 2: not shown
light: B4 light
B8: MH_TvAB21 (bispecific antibody)
chain 1: not shown
chain 2: not shown
chain 3: DIVMTQSPSSLTVTAGENVTMSCKSSQSLLNSGNQKNYLTWYQQKPGQPPKLLIYWASTRESGVPNRFTGSGSGTDFTLAISSVQAEDLSIYYCQSDYSYPYTFGQGTKLEIKRTVAAPSVFIFPPSDEQLKSGTASVVCLLNNFYPREAKVQWKVDNALQSGNSQESVTEQDSKDSTYSLSSTLTLSKADYEKHKVYACEVTHQGLSSPVTKSFNRGEC
B9: MH_TvAB22 (bispecific antibody)
chain 1: not shown
chain 2: not shown
chain 3: B8 chain 3

How the values were obtained:
human c-Met (on cells) = target: T1, human c-Met (on cells) (human, UniProt P08581 25-1390); assay: flow cytometry on A431 cells, dilution series of the antibody, detected with PE-coupled anti-human Fc antibody
T1 construct: Endogenous receptor on human cell lines (A431, A549, HT29, DU145, HUVEC); also called c-Met receptor
Description: (§1) A431 were detached and counted. 1.5×10e5 cells were seeded per well of a conical 96-well plate. Cells were spun down (1500 rpm, 4° C., 5 min) and incubated for 30 min on ice in 50 μL of a dilution series of the respective bispecific antibody in PBS with 2% FCS (fetal calf serum). Cells were again spun down and washed once with 200 μL PBS containing 2% FCS followed by a second incubation of 30 min with a phycoerythrin-coupled antibody directed against human Fc which was diluted in PBS containing 2% FCS (Jackson Immunoresearch, 109116098). Cells were spun down washed twice with 200 μL PBS containing 2% FCS, resuspended in BD CellFix solution (BD Biosciences) and incubated for at least 10 min on ice. Mean fluorescence intensity (mfi) of the cells was determined by flow cytometry (FACS Canto, BD). Mfi was determined at least in duplicates of two independent stainings Flow cytometry spectra were further processed using the FlowJo software (TreeStar). Half-maximal binding was determined using XLFit 4.0 (IDBS) and the dose response one site model 205.
(§2) The binding properties of the bispecific antibodies to their respective receptor on the cell surface was analyzed on A431 cancer cells in a flow cytometry based assay. Cells were incubated with the mono- or bispecific primary antibodies and binding of these antibodies to their cognate receptors was detected with a secondary antibody coupled to a fluorophor binding specifically to the Fc of the primary antibody. The mean fluorescence intensity of a dilution series of the primary antibodies was plotted against the concentration of the antibody to obtain a sigmoidal binding curve.

human ErbB-3 (on cells) [1] = target: T2, human ErbB-3 (on cells) (human, UniProt P21860 20-1342); assay: as above
T2 construct: Endogenous receptor on human cell lines (A431, MCF7, A549, DU145); also called Her3; HER3
Description: as §1, §2

human ErbB-3 (on cells) [2] = target: T2, human ErbB-3 (on cells); assay: cell-based or functional assay
human ErbB-3 (on cells) [3] = target: T2, human ErbB-3 (on cells); assay: flow cytometry on A431 cells, dilution series of the bispecific antibody in the presence of Fab 5D5 (its concentration is not given on the sheet), detected with PE-coupled anti-human Fc antibody
[4] = target: T3, recombinant c-Met ectodomain (ECD) (human, UniProt P08581 25-932); assay: SPR (Biacore T100), antibody captured by anti-Fc gamma antibody, ECD in solution, 25 C
T3 construct: the whole entry for human c-Met is named; also called c-Met ECD

[5] = target: T4, recombinant Her3 ectodomain (ECD) (human, UniProt P21860 20-643); assay: as above
T4 construct: the whole entry for human ErbB-3 is named; also called human HER3 ECD

Binder	% ErbB3 receptor on A431 cell surface measured after 2 h (human ErbB-3 (on cells) [2]) [%]	% Internalization of ErbB3 after 2 h on A431 cells (human ErbB-3 (on cells) [2]) [%]	further results
B1			EC50 (read off the curve) (human c-Met (on cells)): ~0.06 µg/mL
B2	44	54	EC50 (read off the curve) (human ErbB-3 (on cells) [1]): ~0.03 µg/mL
B3	60	40	
B4	94	6	
B5	89	11	
B6			binding result (human ErbB-3 (on cells) [1]): binds
B7			EC50 (read off the curve) (human ErbB-3 (on cells) [3]): ~0.06 µg/mL
B8			Kd [4]: 0.8 nM; Kd [5]: 1.8 nM
B9			Kd [4]: 0.9 nM; Kd [5]: 2.1 nM
